# In IntAct's records for PubMed 25461530:
# B1: Dipeptidyl peptidase 4 (Homo sapiens), P27487 (parent)
# chain: MKTPWKVLLGLLGAAALVTIITVPVVLLNKGTDDATADSRKTYTLTDYLKNTYRLKLYSLRWISDHEYLYKQENNILVFNAEYGNSSVFLENSTFDEFGHSINDYSISPDGQFILLEYNYVKQWRHSYTASYDIYDLNKRQLITEERIPNNTQWVTWSPVGHKLAYVWNNDIYVKIEPNLPSYRITWTGKEDIIYNGITDWVYEEEVFSAYSALWWSPNGTFLAYAQFNDTEVPLIEYSFYSDESLQYPKTVRVPYPKAGAVNPTVKFFVVNTDSLSSVTNATSIQITAPASMLIGDHYLCDVTWATQERISLQWLRRIQNYSVMDICDYDESSGRWNCLVARQHIEMSTTGWVGRFRPSEPHFTLDGNSFYKIISNEEGYRHICYFQIDKKDCTFITKGTWEVIGIEALTSDYLYYISNEYKGMPGGRNLYKIQLSDYTKVTCLSCELNPERCQYYSVSFSKEAKYYQLRCSGPGLPLYTLHSSVNDKGLRVLEDNSALDKMLQNVQMPSKKLDFIILNETKFWYQMILPPHFDKSKKYPLLLDVYAGPCSQKADTVFRLNWATYLASTENIIVASFDGRGSGYQGDKIMHAINRRLGTFEVEDQIEAARQFSKMGFVDNKRIAIWGWSYGGYVTSMVLGSGSGVFKCGIAVAPVSRWEYYDSVYTERYMGLPTPEDNLDHYRNSTVMSRAENFKQVEYLLIHGTADDNVHFQQSAQISKALVDVGVDFQAMWYTDEDHGIASSTAHQHIYTHMSHFIKQCFSLP
# Variants of: B1
# Conditions: with spike_mers1 S
row,Variant,effect of a mutation on the interaction
1,K267A,disrupting interaction strength
2,K267E,disrupting interaction strength
3,R317A,decreasing interaction strength
4,L294D;I295D,disrupting interaction strength
5,L294A;I295A,disrupting interaction strength
6,R336A,decreasing interaction strength
7,Q344A,with no effect
